Source: patent US6410715 (QUESTCOR PHARMACEUTICALS, dated 2002)

Columns and labels:
[1] = biological target: eIF-4E of human HTK-143 cells (human) (UniProt P06730); experiment: cell-based or functional assay
[2] = biological target: 4E-BP1 prepared from untreated rat adipose tissue (rat) (UniProt Q62622); experiment: far-Western on blotted heat-stable adipose tissue proteins, pool 1, no insulin
[3] = biological target: 4E-BP1 prepared from insulin-treated rat adipose tissue (rat) (UniProt Q62622); experiment: far-Western on blotted heat-stable adipose tissue proteins, pool 3, insulin 80 nM
Chain of 4E-BP1 prepared from insulin-treated rat adipose tissue (rat) (Q62622 2-117 limits assumed): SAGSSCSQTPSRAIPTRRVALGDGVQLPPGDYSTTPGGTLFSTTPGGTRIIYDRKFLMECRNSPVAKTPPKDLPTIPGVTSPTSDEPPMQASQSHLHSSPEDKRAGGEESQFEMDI

[4] = biological target: 4E-BP1 prepared from insulin-treated rat adipose tissue (rat) (UniProt Q62622); experiment: far-Western, pool 1, insulin-treated against untreated tissue of the same pool
[5] = biological target: 4E-BP1 prepared from untreated rat adipose tissue (rat) (UniProt Q62622); experiment: far-Western on blotted heat-stable adipose tissue proteins, pool 3, no insulin
[6] = biological target: 4E-BP1 prepared from insulin-treated rat adipose tissue (rat) (UniProt Q62622); experiment: far-Western, pool 3, insulin-treated against untreated tissue of the same pool
[7] = biological target: 4E-BP1 prepared from insulin-treated rat adipose tissue (rat) (UniProt Q62622); experiment: far-Western on blotted heat-stable adipose tissue proteins, pool 1, insulin 80 nM
[8] = biological target: 4E-BP1 prepared from insulin-treated rat adipose tissue (rat) (UniProt Q62622); experiment: far-Western on blotted heat-stable adipose tissue proteins, pool 2, insulin 80 nM
[9] = biological target: 4E-BP1 prepared from insulin-treated rat adipose tissue (rat) (UniProt Q62622); experiment: far-Western, pool 2, insulin-treated against untreated tissue of the same pool
[10] = biological target: 4E-BP1 prepared from untreated rat adipose tissue (rat) (UniProt Q62622); experiment: far-Western on blotted heat-stable adipose tissue proteins, pool 2, no insulin
[11] = biological target: eIF-4E of rabbit reticulocyte lysate (rabbit, UniProt P29338 2-217); experiment: cell-based or functional assay
Chain of eIF-4E of rabbit reticulocyte lysate (P29338 2-217 limits assumed): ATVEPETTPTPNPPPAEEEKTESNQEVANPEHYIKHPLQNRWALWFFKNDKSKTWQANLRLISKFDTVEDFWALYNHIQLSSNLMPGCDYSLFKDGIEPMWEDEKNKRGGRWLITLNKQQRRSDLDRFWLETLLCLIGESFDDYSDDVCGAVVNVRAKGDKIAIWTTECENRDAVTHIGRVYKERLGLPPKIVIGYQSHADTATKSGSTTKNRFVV

Chain of 4E-BP1 prepared from untreated rat adipose tissue (rat) (Q62622 2-117 limits assumed): as the sequence (Q62622 2-117 limits assumed) above
Chain of eIF-4E of human HTK-143 cells (human) (P06730 2-217 limits assumed): as the sequence (P29338 2-217 limits assumed) above, with P15T, A16T, D173E counted along it

4E-BP1 (human, protein of 118 amino acids)
CAT (%), cap-dependent expression from pGEMCAT/EMC/LUC in HTK-143 cells co-transfected with pRc/CMV/4E-BP1 (% of reporter plasmid alone) [1]: 28
CAT (%), cap-dependent expression from pGEMCAT/polio/LUC in HTK-143 cells co-transfected with pRc/CMV/4E-BP1 (% of reporter plasmid alone) [1]: 22
inhibition of CAT expression in transfected HTK-143 cells [1]: 4 to 5 fold

4E-BP2 (human, protein of 120 amino acids)
CAT (%), cap-dependent expression from pGEMCAT/EMC/LUC in HTK-143 cells co-transfected with pRc/CMV/4E-BP2 (% of reporter plasmid alone) [1]: 26
CAT (%), cap-dependent expression from pGEMCAT/polio/LUC in HTK-143 cells co-transfected with pRc/CMV/4E-BP2 (% of reporter plasmid alone) [1]: 24
inhibition of CAT expression in transfected HTK-143 cells [1]: 4 to 5 fold

32P-labelled HMK-eIF-4E probe
Relative amount of HMK-eIF-4E bound (relative amount (Phosphorimager)) [2]: 152
Relative amount of HMK-eIF-4E bound (relative amount (Phosphorimager)) [3]: 60
Fold reduction [4]: 3.7 fold
Relative amount of HMK-eIF-4E bound (relative amount (Phosphorimager)) [5]: 214
Fold reduction [6]: 3.6 fold
Relative amount of HMK-eIF-4E bound (relative amount (Phosphorimager)) [7]: 41
Relative amount of HMK-eIF-4E bound (relative amount (Phosphorimager)) [8]: 70
Fold reduction [9]: 3 fold
Relative amount of HMK-eIF-4E bound (relative amount (Phosphorimager)) [10]: 210

B1: GST-4E-BP2 fusion protein (other, not shown: a dimerising Fc or GST; large carriers; small tags and cut ends)
chain: MSSSAGSGHQPSQSRAIPTRTVAISDAAQLPHDYCTTPGGTLFSTTPGGTRIIYDRKFLLDRRNSPMAQTPPCHLPNIPGVTSPGTLIEDSKVEVNNLNNLNNHDRKHAVGDDAQFEMDI
inhibition of translation of CAT (cap-dependent) [11]: ~5 fold
